Biological target: the molecule itself
Assay: SEC

Protein | stoichiometry N
human UDP-glucose 6-dehydrogenase E161Q mutant (C-terminally truncated) (enzyme, UniProt O60701 1-467, looked up) MFEIKKICCIGAGYVGGPTCSVIAHMCPEIRVTVVDVNESRINAWNSPTLPIYEPGLKEVVESCRGKNLFFSTNIDDAIKEADLVFISVNTPTKTYGMGKGRAADLKYIEACARRIVQNSNGYKIVTEKSTVPVRAAESIRRIFDANTKPNLNLQVLSNPQFLAEGTAIKDLKNPDRVLIGGDETPEGQRAVQALCAVYEHWVPREKILTTNTWSSELSKLAANAFLAQRISSINSISALCEATGADVEEVATAIGMDQRIGNKFLKASVGFGGSCFQKDVLNLVYLCEALNLPEVARYWQQVIDMNDYQRRRFASRIIDSLFNTVTDKKIAILGFAFKKDTGDTRESSSIYISKYLMDEGAHLHIYDPKVPREQIVVDLSHPGVSEDDQVSRLVTISKDPYEACDGAHAVVICTEWDMFKELDYERIHKKMLKPAFIFDGRRVLDGLHNELQTIGFQIETIGKKVS | 6
human UDP-glucose 6-dehydrogenase K220A mutant (C-terminally truncated) (enzyme, UniProt O60701 1-467, looked up) MFEIKKICCIGAGYVGGPTCSVIAHMCPEIRVTVVDVNESRINAWNSPTLPIYEPGLKEVVESCRGKNLFFSTNIDDAIKEADLVFISVNTPTKTYGMGKGRAADLKYIEACARRIVQNSNGYKIVTEKSTVPVRAAESIRRIFDANTKPNLNLQVLSNPEFLAEGTAIKDLKNPDRVLIGGDETPEGQRAVQALCAVYEHWVPREKILTTNTWSSELSALAANAFLAQRISSINSISALCEATGADVEEVATAIGMDQRIGNKFLKASVGFGGSCFQKDVLNLVYLCEALNLPEVARYWQQVIDMNDYQRRRFASRIIDSLFNTVTDKKIAILGFAFKKDTGDTRESSSIYISKYLMDEGAHLHIYDPKVPREQIVVDLSHPGVSEDDQVSRLVTISKDPYEACDGAHAVVICTEWDMFKELDYERIHKKMLKPAFIFDGRRVLDGLHNELQTIGFQIETIGKKVS | 6
human UDP-glucose 6-dehydrogenase D280A mutant (C-terminally truncated) (enzyme, UniProt O60701 1-467, looked up) MFEIKKICCIGAGYVGGPTCSVIAHMCPEIRVTVVDVNESRINAWNSPTLPIYEPGLKEVVESCRGKNLFFSTNIDDAIKEADLVFISVNTPTKTYGMGKGRAADLKYIEACARRIVQNSNGYKIVTEKSTVPVRAAESIRRIFDANTKPNLNLQVLSNPEFLAEGTAIKDLKNPDRVLIGGDETPEGQRAVQALCAVYEHWVPREKILTTNTWSSELSKLAANAFLAQRISSINSISALCEATGADVEEVATAIGMDQRIGNKFLKASVGFGGSCFQKAVLNLVYLCEALNLPEVARYWQQVIDMNDYQRRRFASRIIDSLFNTVTDKKIAILGFAFKKDTGDTRESSSIYISKYLMDEGAHLHIYDPKVPREQIVVDLSHPGVSEDDQVSRLVTISKDPYEACDGAHAVVICTEWDMFKELDYERIHKKMLKPAFIFDGRRVLDGLHNELQTIGFQIETIGKKVS | 6
human UDP-glucose 6-dehydrogenase T131S mutant (C-terminally truncated) (enzyme, UniProt O60701 1-467, looked up) MFEIKKICCIGAGYVGGPTCSVIAHMCPEIRVTVVDVNESRINAWNSPTLPIYEPGLKEVVESCRGKNLFFSTNIDDAIKEADLVFISVNTPTKTYGMGKGRAADLKYIEACARRIVQNSNGYKIVTEKSSVPVRAAESIRRIFDANTKPNLNLQVLSNPEFLAEGTAIKDLKNPDRVLIGGDETPEGQRAVQALCAVYEHWVPREKILTTNTWSSELSKLAANAFLAQRISSINSISALCEATGADVEEVATAIGMDQRIGNKFLKASVGFGGSCFQKDVLNLVYLCEALNLPEVARYWQQVIDMNDYQRRRFASRIIDSLFNTVTDKKIAILGFAFKKDTGDTRESSSIYISKYLMDEGAHLHIYDPKVPREQIVVDLSHPGVSEDDQVSRLVTISKDPYEACDGAHAVVICTEWDMFKELDYERIHKKMLKPAFIFDGRRVLDGLHNELQTIGFQIETIGKKVS | 6
human UDP-glucose 6-dehydrogenase N224A mutant (C-terminally truncated) (enzyme, UniProt O60701 1-467, looked up) MFEIKKICCIGAGYVGGPTCSVIAHMCPEIRVTVVDVNESRINAWNSPTLPIYEPGLKEVVESCRGKNLFFSTNIDDAIKEADLVFISVNTPTKTYGMGKGRAADLKYIEACARRIVQNSNGYKIVTEKSTVPVRAAESIRRIFDANTKPNLNLQVLSNPEFLAEGTAIKDLKNPDRVLIGGDETPEGQRAVQALCAVYEHWVPREKILTTNTWSSELSKLAAAAFLAQRISSINSISALCEATGADVEEVATAIGMDQRIGNKFLKASVGFGGSCFQKDVLNLVYLCEALNLPEVARYWQQVIDMNDYQRRRFASRIIDSLFNTVTDKKIAILGFAFKKDTGDTRESSSIYISKYLMDEGAHLHIYDPKVPREQIVVDLSHPGVSEDDQVSRLVTISKDPYEACDGAHAVVICTEWDMFKELDYERIHKKMLKPAFIFDGRRVLDGLHNELQTIGFQIETIGKKVS | 6

Biological target: the molecule itself
Assay: crystal structure

Protein | binding result
human UDP-glucose 6-dehydrogenase E161Q mutant (thiohemiacetal intermediate) (enzyme, UniProt O60701 1-467, looked up, Cys276 covalently modified: Sγ bonded to C6 of the UDP-Glc-derived substrate (thiohemiacetal)) MFEIKKICCIGAGYVGGPTCSVIAHMCPEIRVTVVDVNESRINAWNSPTLPIYEPGLKEVVESCRGKNLFFSTNIDDAIKEADLVFISVNTPTKTYGMGKGRAADLKYIEACARRIVQNSNGYKIVTEKSTVPVRAAESIRRIFDANTKPNLNLQVLSNPQFLAEGTAIKDLKNPDRVLIGGDETPEGQRAVQALCAVYEHWVPREKILTTNTWSSELSKLAANAFLAQRISSINSISALCEATGADVEEVATAIGMDQRIGNKFLKASVGFGGSCFQKDVLNLVYLCEALNLPEVARYWQQVIDMNDYQRRRFASRIIDSLFNTVTDKKIAILGFAFKKDTGDTRESSSIYISKYLMDEGAHLHIYDPKVPREQIVVDLSHPGVSEDDQVSRLVTISKDPYEACDGAHAVVICTEWDMFKELDYERIHKKMLKPAFIFDGRRVLDGLHNELQTIGFQIETIGKKVS | binds
